# ± gives the half width of the 95% confidence interval.
# Legend:
# [1] = folding stability dG unfold (combined trypsin and chymotrypsin); higher = more stable
# Procedure, shortened: (§1)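 Designed mini-proteins with no cysteine and under 80 residues were kept only if AlphaFold2 dimer inter-PAE was above 15. In a PA-tagged cDNA display construct, they were digested with trypsin and chymotrypsin and then sequenced. K50 was inferred by Bayesian fitting of counts, and unfolding free energy was derived per protease or combined against a sequence-predicted unfolded-state K50 and a shared folded-state K50.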
# [2] = folding stability dG unfold from chymotrypsin proteolysis; higher = more stable
# Procedure, shortened: as §1
# [3] = folding stability dG unfold from trypsin proteolysis; higher = more stable
# Procedure, shortened: as §1
Sequence,folding stability dG unfold [1],folding stability dG unfold [2],folding stability dG unfold [3]
SAGGSSGSIDRVELLSFDPEKGIALVRFPSFGSIQVIPIPPGKNSLKVKVINKNGEPFEFTFSLPLSAGGSA [r2_132_TrMRF],3 ± 0.07 kcal/mol,3.1 ± 0.043 kcal/mol,2.82 ± 0.082 kcal/mol
SAGGSSITVTDETTVEVSPTGSPTGPPVATVTTTTSTTTTTYYDPKTGTSTETTTTTTTTTTSTGASAGGSA [r2_269_JUSTAS],0.382 ± 0.15 kcal/mol,0.192 ± 0.11 kcal/mol,0.603 ± 0.067 kcal/mol
SAGGSSMEVEIDTSKSTTTYTHPSGEKVATRSLVLTPPSPGDPLRFLNVEFEKLPDGSVVVKKIVGSAGGSA [r2_362_JUSTAS],-0.0806 ± 0.22 kcal/mol,-0.142 ± 0.32 kcal/mol,-0.338 ± 0.17 kcal/mol
SAGGSSMYKTTTTPLSTFPVRDENGNFLEETKFEKTTVTYPDGSTVTVLKIEVGGKTFTLEVTPTPSAGGSA [r2_158_JUSTAS],0.565 ± 0.18 kcal/mol,0.952 ± 0.18 kcal/mol,0.0145 ± 0.075 kcal/mol
SAGGSSPELAAERLAEELRRQGYAVREVVVTYDPAGTVTVSAVIEDPADPAATSTLTVTVPLAELGSAGGSA [r2_384_JUSTAS],2.73 ± 0.046 kcal/mol,2.91 ± 0.024 kcal/mol,2.45 ± 0.059 kcal/mol
SAGGSSSLAIITIKPKEIKSYYNPNNPVVVSEMEFEVDITIYSDNEISPEKVKELIEEIEKAFPGIKSAGGS [r8_306_TrMRF],2.32 ± 0.18 kcal/mol,2.88 ± 0.11 kcal/mol,1.31 ± 0.051 kcal/mol
SAGGSSSSALVTVPRTETFPGTTLTTETLITIDPETGTVKVTSTVYSEGEPVEVVPSTVPAAEVTLSAGGSA [r2_188_JUSTAS],0.592 ± 0.077 kcal/mol,0.503 ± 0.051 kcal/mol,0.566 ± 0.036 kcal/mol
SAGGSSSSLIGEIKLPSNVTIKIERSSKGVRTAVVTFPETGKVVTLPLDPNVSIEEIIEKVKEIVEKKSAGG [r13_624_JUSTAS],1.71 ± 0.066 kcal/mol,1.29 ± 0.043 kcal/mol,2.06 ± 0.093 kcal/mol
SAGGSTITTDVPEARELLEELVKAGIKNIKVTVELDGSTVTLEVPPDELEKLVEEIPPEAKVTLEASSAGGS [r16_636_JUSTAS],1.12 ± 0.062 kcal/mol,1.44 ± 0.041 kcal/mol,0.442 ± 0.019 kcal/mol
SAGGSTVSVVPFPDYLLVVTTDVRRTPVPDTDTVSTELTTTVTVIPLPDVPPPVLPFLDADGNPYYASAGGS [r8_46_TrMRF],0.694 ± 0.093 kcal/mol,0.522 ± 0.11 kcal/mol,1.01 ± 0.093 kcal/mol
SAGGSVDIKRIEIYHPPDDKIYIRIDAVASPEHPEDPELRKAQAEALRKPVIEELMKKLGIEPEELSAGGSA [r2_306_JUSTAS],0.468 ± 0.12 kcal/mol,0.61 ± 0.073 kcal/mol,0.241 ± 0.075 kcal/mol
SAGGSVEIWILLPPNNPDLDKIREKLRDEPGIDDVNVKVVKPTPGYWVFEIEVNGDPEVADKIRDLISAGGS [r16_394_TrROS],1.51 ± 0.26 kcal/mol,1.61 ± 0.18 kcal/mol,1.09 ± 0.1 kcal/mol
SAGGSVRVETEFERLPDGPIVVRVRITLPNGETLEFTAVYYPEPSGIPMFVPEPVPPNAIEGIDIKVSAGGS [r16_95_TrMRF],2.11 ± 0.16 kcal/mol,1.78 ± 0.047 kcal/mol,2.55 ± 0.09 kcal/mol
SAGGSVTITSITSIDTSSLSPDSVVTADVPDGKPVLIKGKVPPDGSVILTFYTPDGKPVATFTIPSSAGGSA [r2_323_JUSTAS],0.669 ± 0.06 kcal/mol,0.779 ± 0.056 kcal/mol,0.508 ± 0.017 kcal/mol
SAGGSVTLPDATVVKVPPSQDWQEHADRLAAEIREAGADYEVSVESTPDGSVLITITVPGRTWTMVTSAGGS [r16_771_JUSTAS],0.936 ± 0.03 kcal/mol,0.49 ± 0.077 kcal/mol,1.15 ± 0.032 kcal/mol
SAGGSVTTETDEYFYPDNLFTVAKTTLYVGSGPVEATAVSYPTFTLVNVHYPDGSVDTFLFTLTDDSSAGGS [r16_108_TrMRF],3.08 ± 0.13 kcal/mol,3.56 ± 0.06 kcal/mol,2.38 ± 0.11 kcal/mol
SAGGSVVTTTFTYPDGTVVTTTTTPRPETLLTTTTTTTFYPDKPVKVAPGKEVVTTVTTTTTTVTPAASAGG [r13_780_JUSTAS],0.54 ± 0.069 kcal/mol,0.574 ± 0.12 kcal/mol,0.378 ± 0.03 kcal/mol
SAGGSWVIIIQITIRNPGEERKITIPMEEIQGMPLEQIADNLRKLPGIGDVTIEIQEFPPPKPNDPSAGGSA [r2_282_TrROS],2.31 ± 0.2 kcal/mol,2.34 ± 0.099 kcal/mol,2.31 ± 0.11 kcal/mol
SAGGSYLDEVREKILKEYPLKPGEPKEIEITVPLPSGRTVKIKIPVTVDPKTGKVEAKFEVLEETKESAGGS [r16_634_JUSTAS],0.934 ± 0.074 kcal/mol,1.22 ± 0.028 kcal/mol,0.395 ± 0.033 kcal/mol
SAGGSYLVEVVIEYPKQGVKKTVKLFVNNDPKKAEELAEDIIKELGYPDAKIEIKIIPVDPNDPRVLGSAGG [r13_682_JUSTAS],2.25 ± 0.057 kcal/mol,2.445 ± 0.022 kcal/mol,1.98 ± 0.034 kcal/mol
SAGGTFQVKDPNGKQKPVQLRVRITFEFKGGDKQTFEIEVEGATVDDLREFANSLMNKGFKPVSIEIWSAGG [r13_227_TrROS],1.88 ± 0.048 kcal/mol,2.03 ± 0.047 kcal/mol,1.595 ± 0.0094 kcal/mol

Sequence,folding stability dG unfold [1],folding stability dG unfold [2],folding stability dG unfold [3]
SAGGTIKITIKAENLTEEEKEELAKKIADELKKKGYKVKKVEVTVEKEKEKTVTITLENGKKIEVKLSAGGS [r8_485_TrROS_Hall],2.31 ± 0.18 kcal/mol,2.56 ± 0.038 kcal/mol,1.49 ± 0.072 kcal/mol
SAGGTITIELDGVTIEVRVEEKDGTLTLTAKVYNKDTGEVFEIEITITRKEDGSVTITIKITKIEPLPSAGG [r13_1004_TrROS_Hall],3.87 ± 0.53 kcal/mol,3.96 ± 0.28 kcal/mol,2.44 ± 0.16 kcal/mol
SAGGTIYIWFPMKVDEAVDLAKELAENKDWKIEIYNGGKEHEIELDKIEPVPPENVRVYIEIEPKPDSAGGS [r16_628_TrROS],1.26 ± 0.097 kcal/mol,1.64 ± 0.082 kcal/mol,0.423 ± 0.041 kcal/mol
SAGGTMKYDVEQKYKYPDPDGNPGGEGKHTQEVEVPPPPVIIIPPNDRELAKELAEKFGIPITPDDIASAGG [r19_315_TrROS],0.609 ± 0.39 kcal/mol,0.5 ± 0.25 kcal/mol,0.854 ± 0.18 kcal/mol
SAGGTSPVTIPVTFDDLPPDAVDEAKARAEELAEELRAQGHEVLSVTIEIEPGRVTVTLTVTFPGGAPLSAG [r5_515_JUSTAS],1.3 ± 0.12 kcal/mol,0.623 ± 0.054 kcal/mol,1.93 ± 0.081 kcal/mol
SAGGTTTTLTFETEEEAREFAEELREKHPDVVLEVEIRRETRTVTVPGVGEVREVDRVVVTVTLTPASAGGS [r16_828_JUSTAS],2.89 ± 0.07 kcal/mol,3.27 ± 0.064 kcal/mol,2.03 ± 0.054 kcal/mol
SAGGVDKGPPDAEVSREVLPRKLPNGKELLEEIRTRVLASGSLLVDRTIRDPNSDKVESEELVDPGASAGGS [r8_129_JUSTAS],-0.0613 ± 0.32 kcal/mol,-0.0363 ± 0.16 kcal/mol,0.021 ± 0.31 kcal/mol
SAGGVEREPTEEDLLVATAEFLIEVRDPDSDYPLVEPVPITLPFTSLEDLLEELRRLKAEVEEALASSAGGS [r16_624_TrMRF],1.7 ± 0.14 kcal/mol,1.63 ± 0.073 kcal/mol,1.88 ± 0.092 kcal/mol
SAGGVKEIEIPNGMRITDVDPPDGYWKIKIENPDNGKEVERPIPPGDKLKIPPNAPVTITEIEPYPPSAGGS [r16_123_TrROS],< -1 kcal/mol,-0.103 ± 0.48 kcal/mol,-0.613 ± 0.27 kcal/mol
SAGGVNPTDPAQATTTETTPSLVTLPNGEKVLVTTTTTTTPDGSTTTTTTTTNAATGATTSTTTTTASAGGS [r8_252_JUSTAS],2.19 ± 0.14 kcal/mol,2.39 ± 0.14 kcal/mol,1.97 ± 0.14 kcal/mol
SAGGVREIAKRIANFAREHGYEVEVDEIEPPPNGYVVIDAKIQMRDGGKPVHEFPISIRFPPPPGDPSAGGS [r8_102_TrROS],3.86 ± 0.68 kcal/mol,3.51 ± 0.16 kcal/mol,3.98 ± 0.43 kcal/mol
SAGGWHTIQINVRRPGKPITPEKIKEALREAYPGYPIEVEDINPEDGRITITVPENAMPRIKEALMKSAGGS [r8_235_TrROS],1.01 ± 0.11 kcal/mol,0.896 ± 0.076 kcal/mol,1.06 ± 0.041 kcal/mol
SAGGWITVNQIRDLAKELPPGWRIKIKIEYPGKKHEHTIPPGDPITIPPNMPPEDITRIEITEIEPYSAGGS [r16_97_TrROS],0.575 ± 0.11 kcal/mol,0.444 ± 0.18 kcal/mol,0.476 ± 0.062 kcal/mol
SAGGWMTWEFELEDEDGKDIKIEVEQNPGNPWWRVKIEHKGGKPIPEIPIPADSPDDAIDQARDLLKSAGGS [r16_158_TrROS],-0.149 ± 0.33 kcal/mol,-0.0698 ± 0.49 kcal/mol,0.17 ± 0.21 kcal/mol
SAGGWRLRIHIENPGNGRWITHTFPMPPGNIEKIADDMLEMLPGWKITGVEIVYEPGWITITARVKPKSAGG [r13_196_TrROS],2.74 ± 0.064 kcal/mol,2.9 ± 0.035 kcal/mol,2.252 ± 0.016 kcal/mol
SAGGWWIITIEFPNPEQIKKILEEAGWKVDIERRPNGSVTIFFPPDDVDKIKKAFPGFEINIHPIPPNSAGG [r13_261_TrROS],4.25 ± 0.089 kcal/mol,4.45 ± 0.093 kcal/mol,3.58 ± 0.11 kcal/mol
SAGGYKYKREKYRDPENGQPRERYKREPPPPPPPSISININAPPEMADKIADILQDLLPNMPVGINGSAGGS [r8_437_TrROS],2.84 ± 0.21 kcal/mol,3.04 ± 0.23 kcal/mol,2.45 ± 0.088 kcal/mol
SAGGYLVRIEMPNGREHEYPVKDIDDAASRFRDHLGFPPNMKLKVEVYDPKDGEKKERTLTIPMPKPKSAGG [r13_145_TrROS],0.378 ± 0.069 kcal/mol,0.504 ± 0.12 kcal/mol,0.0313 ± 0.092 kcal/mol
SAGGYVRIRIELQEKRKPPDGKQQQRKKKITITVRLPPNEEMRMPDGKDIDPGKSAEELADYALDNLSAGGS [r16_440_TrROS],1.92 ± 0.15 kcal/mol,1.68 ± 0.077 kcal/mol,2.16 ± 0.08 kcal/mol
SAGGYYIEFRNPNNGNTVTIPPELIEAIKSGDPDKLKKLPPWFRDALDNIDRVEIQPPPPVPPVPPGKSAGG [r13_233_TrROS],0.887 ± 0.053 kcal/mol,0.958 ± 0.041 kcal/mol,0.68 ± 0.051 kcal/mol
SAGIEIDIEVDPENGFIKITAKIHNPDGNPVYEMEMWIPVDNGRIYRVDIRINPDNGKIELDIEPFPLNSAG [r5_34_TrROS],3.79 ± 0.26 kcal/mol,3.88 ± 0.24 kcal/mol,3.48 ± 0.29 kcal/mol
